# Source: the supplement of paper PMC10567573
# B1: TRIM55 (parent)
# chain: ICPICLEMFTKPVVILPCQHNLCR
# Variants of: B1
# Test: protein stability index of a GFP-peptide fusion (GPS, HEK-293T) (PSI 1-6); higher = more stable
# Settings: c terminus: a fixed tail appended
# 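Further: lentivirally expressed fusions sorted by FACS into six bins by GFP to DsRed ratio, PSI derived from sequencing read proportions per bin multiplied by bin number.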
row,Variant,protein stability index
1,ICPICLEMFTPPVVILPCQHNLCR,2.35
2,ICPICLEMFTEPVVILPCQHNLCR,2.83
3,ICPICLEMFTDPVVILPCQHNLCR,3.28
4,ICPICLEMFTLPVVILPCQHNLCR,1.9
5,ICPICLEMFTWPVVILPCQHNLCR,1.93
6,ICPICLEMFTFPVVILPCQHNLCR,2.2
7,ICPICLEMFTHPVVILPCQHNLCR,2.4
8,ICPICLEMFTGPVVILPCQHNLCR,2.56
9,ICPICLEMFTIPVVILPCQHNLCR,2.29
10,ICPICLEMFTVPVVILPCQHNLCR,1.98
11,ICPICLEMFTCPVVILPCQHNLCR,2.51
12,ICPICLEMFTYPVVILPCQHNLCR,1.69
13,ICPICLEMFTMPVVILPCQHNLCR,1.94
14,ICPICLEMFTAPVVILPCQHNLCR,3.04
15,ICPICLEMFTQPVVILPCQHNLCR,2.6
16,ICPICLEMFTTPVVILPCQHNLCR,2.26
17,ICPICLEMFTRPVVILPCQHNLCR,1.87
18,ICPICLEMFTNPVVILPCQHNLCR,2.32
19,ICPICLEMFTSPVVILPCQHNLCR,2.67
20,ICPICLEMFTKPRVILPCQHNLCR,2.19
21,ICPICLEMFTKPNVILPCQHNLCR,2.92
22,ICPICLEMFTKPSVILPCQHNLCR,2.58
23,ICPICLEMFTKPDVILPCQHNLCR,3.31
24,ICPICLEMFTKPIVILPCQHNLCR,2.11

row,Variant,protein stability index
1,ICPICLEMFTKPQVILPCQHNLCR,3.49
2,ICPICLEMFTKPLVILPCQHNLCR,2.26
3,ICPICLEMFTKPTVILPCQHNLCR,2.62
4,ICPICLEMFTKPGVILPCQHNLCR,2.84
5,ICPICLEMFTKPHVILPCQHNLCR,2.63
6,ICPICLEMFTKPEVILPCQHNLCR,2.61
7,ICPICLEMFTKPYVILPCQHNLCR,1.99
8,ICPICLEMFTKPMVILPCQHNLCR,2.33
9,ICPICLEMFTKPWVILPCQHNLCR,1.89
10,ICPICLEMFTKPFVILPCQHNLCR,2.31
11,ICPICLEMFTKPAVILPCQHNLCR,2.37
12,ICPICLEMFTKPKVILPCQHNLCR,2.15
13,ICPICLEMFTKPCVILPCQHNLCR,2.21
14,ICPICLEMFTKPPVILPCQHNLCR,2.23
15,ICPICLEMFTKPVVIKPCQHNLCR,2.58
16,ICPICLEMFTKPVVIGPCQHNLCR,3.03
17,ICPICLEMFTKPVVIIPCQHNLCR,2.05
18,ICPICLEMFTKPVVICPCQHNLCR,2.4
19,ICPICLEMFTKPVVIDPCQHNLCR,2.61
20,ICPICLEMFTKPVVIHPCQHNLCR,2.86
21,ICPICLEMFTKPVVIEPCQHNLCR,2.35
22,ICPICLEMFTKPVVIAPCQHNLCR,2.56
23,ICPICLEMFTKPVVIFPCQHNLCR,2.12
24,ICPICLEMFTKPVNILPCQHNLCR,2.93

row,Variant,protein stability index
1,ICPICLEMFTKPVGILPCQHNLCR,2.54
2,ICPICLEMFTKPVHILPCQHNLCR,2.82
3,ICPICLEMFTKPVAILPCQHNLCR,2.56
4,ICPICLEMFTKPVQILPCQHNLCR,2.59
5,ICPICLEMFTKPVCILPCQHNLCR,2.32
6,ICPICLEMFTKPVWILPCQHNLCR,1.89
7,ICPICLEMFTKPVEILPCQHNLCR,3.02
8,ICPICLEMFTKPVIILPCQHNLCR,2.4
9,ICPICLEMFTKPVRILPCQHNLCR,2.47
10,ICPICLEMFTKPVKILPCQHNLCR,2.33
11,ICPICLEMFTKPVMILPCQHNLCR,2.98
12,ICPICLEMFTKPVPILPCQHNLCR,2.56
13,ICPICLEMFTKPVYILPCQHNLCR,2.15
14,ICPICLEMFTKPVFILPCQHNLCR,2.49
15,ICPICLEMFTKPVSILPCQHNLCR,3.12
16,ICPICLEMFTKPVDILPCQHNLCR,3.31
17,ICPICLEMFTKPVTILPCQHNLCR,2.63
18,ICPICLEMFTKPVLILPCQHNLCR,2.29
19,ICPICLEMFTKKVVILPCQHNLCR,2.5
20,ICPICLEMFTKRVVILPCQHNLCR,2.05
21,ICPICLEMFTKTVVILPCQHNLCR,2.34
22,ICPICLEMFTKWVVILPCQHNLCR,1.97
23,ICPICLEMFTKIVVILPCQHNLCR,2.23
24,ICPICLEMFTKDVVILPCQHNLCR,2.61

row,Variant,protein stability index
1,ICPICLEMFTKVVVILPCQHNLCR,2.29
2,ICPICLEMFTKHVVILPCQHNLCR,2.04
3,ICPICLEMFTKAVVILPCQHNLCR,2.19
4,ICPICLEMFTKEVVILPCQHNLCR,2.55
5,ICPICLEMFTKMVVILPCQHNLCR,2.25
6,ICPICLEMFTKQVVILPCQHNLCR,2.43
7,ICPICLEMFTKFVVILPCQHNLCR,1.55
8,ICPICLEMFTKNVVILPCQHNLCR,2.99
9,ICPICLEMFTKGVVILPCQHNLCR,2.25
10,ICPICLEMFTKLVVILPCQHNLCR,2.02
11,ICPICLEMFTKSVVILPCQHNLCR,2.59
12,ICPICLEMFTKCVVILPCQHNLCR,2.42
13,ICPICLEMFTKYVVILPCQHNLCR,1.8
14,ICPICQEMFTKPVVILPCQHNLCR,1.99
15,ICPICREMFTKPVVILPCQHNLCR,2.22
16,ICPICYEMFTKPVVILPCQHNLCR,2.34
17,ICPICVEMFTKPVVILPCQHNLCR,1.95
18,ICPICWEMFTKPVVILPCQHNLCR,2.77
19,ICPICTEMFTKPVVILPCQHNLCR,2.51
20,ICPICSEMFTKPVVILPCQHNLCR,2.52
21,ICPICPEMFTKPVVILPCQHNLCR,2.69
22,ICPICLEMFYKPVVILPCQHNLCR,2.06
23,ICPICLEMFSKPVVILPCQHNLCR,2.74
24,ICPICLEMFIKPVVILPCQHNLCR,1.83

row,Variant,protein stability index
1,ICPICLEMFQKPVVILPCQHNLCR,3.09
2,ICPICLEMFFKPVVILPCQHNLCR,1.74
3,ICPICLEMFDKPVVILPCQHNLCR,2.48
4,ICPICLEMFAKPVVILPCQHNLCR,2.23
5,ICPICLEMFRKPVVILPCQHNLCR,2.38
6,ICPICLEMFEKPVVILPCQHNLCR,2.59
7,ICPICLEMFHKPVVILPCQHNLCR,2.27
8,ICPICLEMFKKPVVILPCQHNLCR,2.34
9,ICPICLEMFGKPVVILPCQHNLCR,2.25
10,ICPICLEMFVKPVVILPCQHNLCR,1.56
11,ICPICLEMFLKPVVILPCQHNLCR,2.59
12,ICPICLEMFMKPVVILPCQHNLCR,2.3
13,ICPICLEMFWKPVVILPCQHNLCR,2.27
14,ICPICLEMFCKPVVILPCQHNLCR,2.08
15,ICPICLEMFPKPVVILPCQHNLCR,2.46
16,ICPICLEMFNKPVVILPCQHNLCR,2.73
17,ICPICLVMFTKPVVILPCQHNLCR,1.42
18,ICPICLTMFTKPVVILPCQHNLCR,1.85
19,ICPICLWMFTKPVVILPCQHNLCR,1.89
20,ICPICLLMFTKPVVILPCQHNLCR,2.47
21,ICPICLKMFTKPVVILPCQHNLCR,1.87
22,ICPICLCMFTKPVVILPCQHNLCR,1.92
23,ICPICLDMFTKPVVILPCQHNLCR,2.35
24,ICPICLHMFTKPVVILPCQHNLCR,2.29

row,Variant,protein stability index
1,ICPICLSMFTKPVVILPCQHNLCR,2.19
2,ICPICLGMFTKPVVILPCQHNLCR,2.52
3,ICPICLAMFTKPVVILPCQHNLCR,2.3
4,ICPICLQMFTKPVVILPCQHNLCR,2.42
5,ICPICLNMFTKPVVILPCQHNLCR,1.53
6,ICPICLFMFTKPVVILPCQHNLCR,2.24
7,ICPICLPMFTKPVVILPCQHNLCR,2.13
8,ICPICLMMFTKPVVILPCQHNLCR,2.09
9,ICPICLRMFTKPVVILPCQHNLCR,2.24
10,ICPICLIMFTKPVVILPCQHNLCR,1.94
11,ICPICLYMFTKPVVILPCQHNLCR,2.07
12,ICPICLEMFTKPVVFLPCQHNLCR,2.32
13,ICPICLEMFTKPVVSLPCQHNLCR,2.74
14,ICPICLEMFTKPVVDLPCQHNLCR,2.81
15,ICPICLEMFTKPVVVLPCQHNLCR,2.14
16,ICPICLEMFTKPVVQLPCQHNLCR,3.22
17,ICPICLEMFTKPVVLLPCQHNLCR,2.6
18,ICPICLEMFTKPVVKLPCQHNLCR,2.09
19,ICPICLEMFTKPVVRLPCQHNLCR,2.18
20,ICPICLEMFTKPVVELPCQHNLCR,3.32
21,ICPICLEMFTKPVVHLPCQHNLCR,2.38
22,ICPICLEMFTKPVVGLPCQHNLCR,2.53
23,ICPICLEMFTKPVVNLPCQHNLCR,2.5
24,ICPICLEMFTKPVVWLPCQHNLCR,1.85

row,Variant,protein stability index
1,ICPICLEMFTKPVVTLPCQHNLCR,2.88
2,ICPICLEMFTKPVVALPCQHNLCR,2.84
3,ICPICLEMFTKPVVPLPCQHNLCR,2.69
4,ICPICLEMFTKPVVCLPCQHNLCR,2.71
5,ICPICLEMFTKPVVYLPCQHNLCR,2.02
6,ICPICLEMFTKPVVMLPCQHNLCR,2
7,ICPICLEAFTKPVVILPCQHNLCR,2.76
8,ICPICLEFFTKPVVILPCQHNLCR,2.55
9,ICPICLECFTKPVVILPCQHNLCR,2.44
10,ICPICLEDFTKPVVILPCQHNLCR,3.58
11,ICPICLEYFTKPVVILPCQHNLCR,2.82
12,ICPICLEQFTKPVVILPCQHNLCR,3.31
13,ICPICLEHFTKPVVILPCQHNLCR,2.76
14,ICPICLEVFTKPVVILPCQHNLCR,2.17
15,ICPICLERFTKPVVILPCQHNLCR,2.42
16,ICPICLEKFTKPVVILPCQHNLCR,2.98
17,ICPICLELFTKPVVILPCQHNLCR,1.66
18,ICPICLEIFTKPVVILPCQHNLCR,2.63
19,ICPICLENFTKPVVILPCQHNLCR,1.9
20,ICPICLEPFTKPVVILPCQHNLCR,2.71
21,ICPICLEEFTKPVVILPCQHNLCR,2.59
22,ICPICLETFTKPVVILPCQHNLCR,2.73
23,ICPICLEGFTKPVVILPCQHNLCR,2.11
24,ICPICLEWFTKPVVILPCQHNLCR,3.09

row,Variant,protein stability index
1,ICPICLESFTKPVVILPCQHNLCR,2.59
2,ICPICLEMCTKPVVILPCQHNLCR,2.81
3,ICPICLEMNTKPVVILPCQHNLCR,2.75
4,ICPICLEMETKPVVILPCQHNLCR,3.15
5,ICPICLEMRTKPVVILPCQHNLCR,2.18
6,ICPICLEMKTKPVVILPCQHNLCR,3.63
7,ICPICLEMQTKPVVILPCQHNLCR,2.49
8,ICPICLEMLTKPVVILPCQHNLCR,2.47
9,ICPICLEMTTKPVVILPCQHNLCR,3.07
10,ICPICLEMGTKPVVILPCQHNLCR,2.52
11,ICPICLEMDTKPVVILPCQHNLCR,3.1
12,ICPICLEMWTKPVVILPCQHNLCR,2.47
13,ICPICLEMHTKPVVILPCQHNLCR,2.82
14,ICPICLEMVTKPVVILPCQHNLCR,2.86
15,ICPICLEMMTKPVVILPCQHNLCR,2.51
16,ICPICLEMPTKPVVILPCQHNLCR,2.85
17,ICPICLEMSTKPVVILPCQHNLCR,2.75
18,ICPICLEMATKPVVILPCQHNLCR,2.64
19,ICPICLEMITKPVVILPCQHNLCR,2.77
20,ICPICLEMYTKPVVILPCQHNLCR,2.18
